This is an account of results in patent publication US20120172293A1 (Takeda / Millennium, published 2012).

Starred links: 1 amine or outer side, 2 acyl side, 3 side chain; linkers in the order of their positions; H or OH if unused. Non-standard residues stand in square brackets, D forms with d. *: point of attachment. Phe(4-NH2) = Nc1ccc(C[C@H](N)C(=O)O)cc1; 1Nal = N[C@@H](Cc1cccc2ccccc12)C(=O)O; Arg(Me) = CNC(=N)NCCC[C@H](N)C(=O)O; tBuAla = CC(C)(C)C[C@H](N)C(=O)O; 4Pal = N[C@@H](Cc1ccncc1)C(=O)O; Cha = N[C@@H](CC1CCCCC1)C(=O)O; Suc = O=C(CCC(=O)[*:2])[*:1]; dIva = CC[C@@](C)(N)C(=O)O; Iva = CC[C@](C)(N)C(=O)O; Nle = CCCC[C@H](N)C(=O)O; Dap = NC[C@H](N)C(=O)O; Aib = CC(C)(N)C(=O)O; Bz = O=C(c1ccccc1)*; Ahx = NCCCCCC(=O)O

B1: Ac-[D-Pro24, D-Iva26, Cha27,28,36, Aib31]-PYY(23-36) (peptide)
peptide: Ac-S[dP]R[dIva][Cha][Cha]NL[Aib]TRQR[Cha]-NH2
SMILES: CC[C@@](C)(NC(=O)[C@H](CCCNC(=N)N)NC(=O)[C@H]1CCCN1C(=O)[C@H](CO)NC(C)=O)C(=O)N[C@@H](CC1CCCCC1)C(=O)N[C@@H](CC1CCCCC1)C(=O)N[C@@H](CC(N)=O)C(=O)N[C@@H](CC(C)C)C(=O)NC(C)(C)C(=O)N[C@H](C(=O)N[C@@H](CCCNC(=N)N)C(=O)N[C@@H](CCC(N)=O)C(=O)N[C@@H](CCCNC(=N)N)C(=O)N[C@@H](CC1CCCCC1)C(N)=O)[C@@H](C)O
B2: Benzoyl-[Cha27,36, Ile28, Pya(4)31]-PYY(25-36) (peptide)
peptide: Bz-RH[Cha]INL[4Pal]TRQR[Cha]-NH2
SMILES: CC[C@H](C)[C@H](NC(=O)[C@H](CC1CCCCC1)NC(=O)[C@H](Cc1c[nH]cn1)NC(=O)[C@H](CCCNC(=N)N)NC(=O)c1ccccc1)C(=O)N[C@@H](CC(N)=O)C(=O)N[C@@H](CC(C)C)C(=O)N[C@@H](Cc1ccncc1)C(=O)N[C@H](C(=O)N[C@@H](CCCNC(=N)N)C(=O)N[C@@H](CCC(N)=O)C(=O)N[C@@H](CCCNC(=N)N)C(=O)N[C@@H](CC1CCCCC1)C(N)=O)[C@@H](C)O
B3: Ac-[D-Pro24, Iva25, Cha27,28,36, Aib31]-PYY(23-36) (peptide)
peptide: Ac-S[dP][Iva]H[Cha][Cha]NL[Aib]TRQR[Cha]-NH2
SMILES: CC[C@](C)(NC(=O)[C@H]1CCCN1C(=O)[C@H](CO)NC(C)=O)C(=O)N[C@@H](Cc1c[nH]cn1)C(=O)N[C@@H](CC1CCCCC1)C(=O)N[C@@H](CC1CCCCC1)C(=O)N[C@@H](CC(N)=O)C(=O)N[C@@H](CC(C)C)C(=O)NC(C)(C)C(=O)N[C@H](C(=O)N[C@@H](CCCNC(=N)N)C(=O)N[C@@H](CCC(N)=O)C(=O)N[C@@H](CCCNC(=N)N)C(=O)N[C@@H](CC1CCCCC1)C(N)=O)[C@@H](C)O
B4: Ac-[D-Pro24, Cha27,28,36, D-Iva29, Aib31]-PYY(23-36) (peptide)
peptide: Ac-S[dP]RH[Cha][Cha][dIva]L[Aib]TRQR[Cha]-NH2
SMILES: CC[C@@](C)(NC(=O)[C@H](CC1CCCCC1)NC(=O)[C@H](CC1CCCCC1)NC(=O)[C@H](Cc1c[nH]cn1)NC(=O)[C@H](CCCNC(=N)N)NC(=O)[C@H]1CCCN1C(=O)[C@H](CO)NC(C)=O)C(=O)N[C@@H](CC(C)C)C(=O)NC(C)(C)C(=O)N[C@H](C(=O)N[C@@H](CCCNC(=N)N)C(=O)N[C@@H](CCC(N)=O)C(=O)N[C@@H](CCCNC(=N)N)C(=O)N[C@@H](CC1CCCCC1)C(N)=O)[C@@H](C)O
B5: Benzoyl-[Cha27,36, Ile28, Arg(Me)31]-PYY(25-36) (peptide)
peptide: Bz-RH[Cha]INL[Arg(Me)]TRQR[Cha]-NH2
SMILES: CC[C@H](C)[C@H](NC(=O)[C@H](CC1CCCCC1)NC(=O)[C@H](Cc1c[nH]cn1)NC(=O)[C@H](CCCNC(=N)N)NC(=O)c1ccccc1)C(=O)N[C@@H](CC(N)=O)C(=O)N[C@@H](CC(C)C)C(=O)N[C@@H](CCCNC(=N)NC)C(=O)N[C@H](C(=O)N[C@@H](CCCNC(=N)N)C(=O)N[C@@H](CCC(N)=O)C(=O)N[C@@H](CCCNC(=N)N)C(=O)N[C@@H](CC1CCCCC1)C(N)=O)[C@@H](C)O
B6: Benzoyl-[Cha27,28,36, Aib31]-PYY(25-36) (peptide)
peptide: Bz-RH[Cha][Cha]NL[Aib]TRQR[Cha]-NH2
SMILES: CC(C)C[C@H](NC(=O)[C@H](CC(N)=O)NC(=O)[C@H](CC1CCCCC1)NC(=O)[C@H](CC1CCCCC1)NC(=O)[C@H](Cc1c[nH]cn1)NC(=O)[C@H](CCCNC(=N)N)NC(=O)c1ccccc1)C(=O)NC(C)(C)C(=O)N[C@H](C(=O)N[C@@H](CCCNC(=N)N)C(=O)N[C@@H](CCC(N)=O)C(=O)N[C@@H](CCCNC(=N)N)C(=O)N[C@@H](CC1CCCCC1)C(N)=O)[C@@H](C)O
B7: Piperidinocarbonyl-[Glu23, D-Pro24, Pya(4)26, Cha27,36, Aib28,31, Lys30]-PYY(23-36) (peptide)
peptide: Piperidinocarbonyl-E[dP]R[4Pal][Cha][Aib]NK[Aib]TRQR[Cha]-NH2
B8: 3-Carboxypropionyl-[Acp22, D-Pro24, Cha27,36, Leu(Me)28, Lys30, Aib31]-PYY(22-36) (peptide)
peptide: Suc-[Ahx]S[dP]RH[Cha][tBuAla]NK[Aib]TRQR[Cha]-NH2
SMILES: C[C@@H](O)[C@H](NC(=O)C(C)(C)NC(=O)[C@H](CCCCN)NC(=O)[C@H](CC(N)=O)NC(=O)[C@H](CC(C)(C)C)NC(=O)[C@H](CC1CCCCC1)NC(=O)[C@H](Cc1c[nH]cn1)NC(=O)[C@H](CCCNC(=N)N)NC(=O)[C@H]1CCCN1C(=O)[C@H](CO)NC(=O)CCCCCNC(=O)CCC(=O)O)C(=O)N[C@@H](CCCNC(=N)N)C(=O)N[C@@H](CCC(N)=O)C(=O)N[C@@H](CCCNC(=N)N)C(=O)N[C@@H](CC1CCCCC1)C(N)=O
B9: Ac-[Glu23, D-Pro24, Nle25, Pya(4)26, Cha27,28,36, Lys30, Aib31]-PYY(23-36) (peptide)
peptide: Ac-E[dP][Nle][4Pal][Cha][Cha]NK[Aib]TRQR[Cha]-NH2
SMILES: CCCC[C@H](NC(=O)[C@H]1CCCN1C(=O)[C@H](CCC(=O)O)NC(C)=O)C(=O)N[C@@H](Cc1ccncc1)C(=O)N[C@@H](CC1CCCCC1)C(=O)N[C@@H](CC1CCCCC1)C(=O)N[C@@H](CC(N)=O)C(=O)N[C@@H](CCCCN)C(=O)NC(C)(C)C(=O)N[C@H](C(=O)N[C@@H](CCCNC(=N)N)C(=O)N[C@@H](CCC(N)=O)C(=O)N[C@@H](CCCNC(=N)N)C(=O)N[C@@H](CC1CCCCC1)C(N)=O)[C@@H](C)O
B10: Benzoyl-[Cha27,36, Ile28, Dap31]-PYY(25-36) (peptide)
peptide: Bz-RH[Cha]INL[Dap]TRQR[Cha]-NH2
SMILES: CC[C@H](C)[C@H](NC(=O)[C@H](CC1CCCCC1)NC(=O)[C@H](Cc1c[nH]cn1)NC(=O)[C@H](CCCNC(=N)N)NC(=O)c1ccccc1)C(=O)N[C@@H](CC(N)=O)C(=O)N[C@@H](CC(C)C)C(=O)N[C@@H](CN)C(=O)N[C@H](C(=O)N[C@@H](CCCNC(=N)N)C(=O)N[C@@H](CCC(N)=O)C(=O)N[C@@H](CCCNC(=N)N)C(=O)N[C@@H](CC1CCCCC1)C(N)=O)[C@@H](C)O
B11: Ac-[D-Pro24, D-Iva25, Cha27,28,36, Aib31]-PYY(23-36) (peptide)
peptide: Ac-S[dP][dIva]H[Cha][Cha]NL[Aib]TRQR[Cha]-NH2
SMILES: CC[C@@](C)(NC(=O)[C@H]1CCCN1C(=O)[C@H](CO)NC(C)=O)C(=O)N[C@@H](Cc1c[nH]cn1)C(=O)N[C@@H](CC1CCCCC1)C(=O)N[C@@H](CC1CCCCC1)C(=O)N[C@@H](CC(N)=O)C(=O)N[C@@H](CC(C)C)C(=O)NC(C)(C)C(=O)N[C@H](C(=O)N[C@@H](CCCNC(=N)N)C(=O)N[C@@H](CCC(N)=O)C(=O)N[C@@H](CCCNC(=N)N)C(=O)N[C@@H](CC1CCCCC1)C(N)=O)[C@@H](C)O
B12: Ac-[D-Pro24, Iva26, Cha27,28,36, Aib31]-PYY(23-36) (peptide)
peptide: Ac-S[dP]R[Iva][Cha][Cha]NL[Aib]TRQR[Cha]-NH2
SMILES: CC[C@](C)(NC(=O)[C@H](CCCNC(=N)N)NC(=O)[C@H]1CCCN1C(=O)[C@H](CO)NC(C)=O)C(=O)N[C@@H](CC1CCCCC1)C(=O)N[C@@H](CC1CCCCC1)C(=O)N[C@@H](CC(N)=O)C(=O)N[C@@H](CC(C)C)C(=O)NC(C)(C)C(=O)N[C@H](C(=O)N[C@@H](CCCNC(=N)N)C(=O)N[C@@H](CCC(N)=O)C(=O)N[C@@H](CCCNC(=N)N)C(=O)N[C@@H](CC1CCCCC1)C(N)=O)[C@@H](C)O
B13: Ac-[Acp22, Glu23, D-Pro24, Cha27,28,36, Lys30, Aib31]-PYY(22-36) (peptide)
peptide: Ac-[Ahx]E[dP]RH[Cha][Cha]NK[Aib]TRQR[Cha]-NH2
SMILES: CC(=O)NCCCCCC(=O)N[C@@H](CCC(=O)O)C(=O)N1CCC[C@@H]1C(=O)N[C@@H](CCCNC(=N)N)C(=O)N[C@@H](Cc1c[nH]cn1)C(=O)N[C@@H](CC1CCCCC1)C(=O)N[C@@H](CC1CCCCC1)C(=O)N[C@@H](CC(N)=O)C(=O)N[C@@H](CCCCN)C(=O)NC(C)(C)C(=O)N[C@H](C(=O)N[C@@H](CCCNC(=N)N)C(=O)N[C@@H](CCC(N)=O)C(=O)N[C@@H](CCCNC(=N)N)C(=O)N[C@@H](CC1CCCCC1)C(N)=O)[C@@H](C)O
B14: Benzoyl-[Cha27,36, Nal(1)28, Aib31]-PYY(25-36) (peptide)
peptide: Bz-RH[Cha][1Nal]NL[Aib]TRQR[Cha]-NH2
SMILES: CC(C)C[C@H](NC(=O)[C@H](CC(N)=O)NC(=O)[C@H](Cc1cccc2ccccc12)NC(=O)[C@H](CC1CCCCC1)NC(=O)[C@H](Cc1c[nH]cn1)NC(=O)[C@H](CCCNC(=N)N)NC(=O)c1ccccc1)C(=O)NC(C)(C)C(=O)N[C@H](C(=O)N[C@@H](CCCNC(=N)N)C(=O)N[C@@H](CCC(N)=O)C(=O)N[C@@H](CCCNC(=N)N)C(=O)N[C@@H](CC1CCCCC1)C(N)=O)[C@@H](C)O
B15: Benzoyl-[Cha27,36, Ile28, Phe(4NH2)31]-PYY(25-36) (peptide)
peptide: Bz-RH[Cha]INL[Phe(4-NH2)]TRQR[Cha]-NH2
SMILES: CC[C@H](C)[C@H](NC(=O)[C@H](CC1CCCCC1)NC(=O)[C@H](Cc1c[nH]cn1)NC(=O)[C@H](CCCNC(=N)N)NC(=O)c1ccccc1)C(=O)N[C@@H](CC(N)=O)C(=O)N[C@@H](CC(C)C)C(=O)N[C@@H](Cc1ccc(N)cc1)C(=O)N[C@H](C(=O)N[C@@H](CCCNC(=N)N)C(=O)N[C@@H](CCC(N)=O)C(=O)N[C@@H](CCCNC(=N)N)C(=O)N[C@@H](CC1CCCCC1)C(N)=O)[C@@H](C)O

The target of the first assay is human Y2 receptor (human) (UniProt P49146). Nature of the assay: RBA: [125I]-PYY displacement, hY2R/CHO membranes.
human Y2 receptor (human), sequence (P49146 whole entry): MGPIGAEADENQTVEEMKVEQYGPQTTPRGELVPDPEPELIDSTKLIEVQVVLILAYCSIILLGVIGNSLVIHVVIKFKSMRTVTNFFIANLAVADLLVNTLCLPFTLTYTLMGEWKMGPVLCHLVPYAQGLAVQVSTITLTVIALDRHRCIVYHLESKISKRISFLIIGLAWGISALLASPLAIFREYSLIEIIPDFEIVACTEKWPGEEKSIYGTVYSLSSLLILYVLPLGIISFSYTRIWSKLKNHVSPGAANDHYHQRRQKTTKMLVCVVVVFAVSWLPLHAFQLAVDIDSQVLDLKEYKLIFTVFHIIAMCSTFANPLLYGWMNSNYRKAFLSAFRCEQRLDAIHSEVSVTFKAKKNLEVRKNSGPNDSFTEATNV
Take B1: the IC50 Ratio (vs PYY(3-36)) came out at 19.
Same read-out and setting: then B2, with 7.6; and B3, with 4.5; and B4, with 71.
As to B5, the IC50 Ratio (vs PYY(3-36)) stood at 18.
On the same count and under the same terms, then B6, with 28; and B7, with 3.3.
Still for that read-out and setting: then B8, with 1.7; and B9, with 2.3.
B10: the IC50 Ratio (vs PYY(3-36)) amounted to 37.
With B11, the IC50 Ratio (vs PYY(3-36)) worked out at 14.
As to B12, the IC50 Ratio (vs PYY(3-36)) turned out to be 5.2.
The same measure, in the same setting: then B13, with 1.7; and B14, with 34.
For the molecule B15, the IC50 Ratio (vs PYY(3-36)) is 5.

For a further assay the target is unchanged. Nature of the assay: cell-based or functional assay.
With B1, the GBA EC50 Ratio (vs PYY(3-36)), [35S]GTPγS amounted to 13.
With B2, the GBA EC50 Ratio (vs PYY(3-36)), [35S]GTPγS is 8.5.
On the same count and under the same terms, the same measure for B3: 3.7; for B4: 37.
The same measure, in the same setting: the same measure for B5: 15.
Still for that read-out and setting: the same measure for B6: 18.
Consider B7, for which the GBA EC50 Ratio (vs PYY(3-36)), [35S]GTPγS was 2.4.
Consider B8, for which the GBA EC50 Ratio (vs PYY(3-36)), [35S]GTPγS was 1.2.
The same measure, in the same setting: then B9, with 1.3; and B10, with 28; and B11, with 11.
Take B12: the GBA EC50 Ratio (vs PYY(3-36)), [35S]GTPγS was found to be 4.2.
Regarding B13, the GBA EC50 Ratio (vs PYY(3-36)), [35S]GTPγS was found to be 1.1.
Take B14: the GBA EC50 Ratio (vs PYY(3-36)), [35S]GTPγS is 25.
On the same count and under the same terms, then B15, with 5.4.
